# US20230357348A1 (AstraZeneca / MedImmune, published 2023)
# Starred links: 1 amine or outer side, 2 acyl side, 3 side chain; linkers in the order of their positions; H or OH if unused. Non-standard residues stand in square brackets, D forms with d. Groups on a side chain read outwards from the residue. No end group written: not given here. *: point of attachment. C20 diacid = O=C(O)CCCCCCCCCCCCCCCCCCC(=O)*; C18 diacid = O=C(O)CCCCCCCCCCCCCCCCC(=O)*; γGlu = O=C(O)[C@H](CCC(=O)[*:2])N[*:1]; αMeF = C[C@](N)(Cc1ccccc1)C(=O)O; AEEA = NCCOCCOCC(=O)O; Aib = CC(C)(N)C(=O)O
# Experiments:
# [1] = target: human GLP-1 receptor (hGLP-1R) (human, UniProt P43220 24-463); experiment: cell-based or functional assay
# [2] = target: human glucagon receptor (hGCGR) (human, UniProt P47871 26-477); experiment: cell-based or functional assay
# Chain of human glucagon receptor (hGCGR) (P47871 26-477): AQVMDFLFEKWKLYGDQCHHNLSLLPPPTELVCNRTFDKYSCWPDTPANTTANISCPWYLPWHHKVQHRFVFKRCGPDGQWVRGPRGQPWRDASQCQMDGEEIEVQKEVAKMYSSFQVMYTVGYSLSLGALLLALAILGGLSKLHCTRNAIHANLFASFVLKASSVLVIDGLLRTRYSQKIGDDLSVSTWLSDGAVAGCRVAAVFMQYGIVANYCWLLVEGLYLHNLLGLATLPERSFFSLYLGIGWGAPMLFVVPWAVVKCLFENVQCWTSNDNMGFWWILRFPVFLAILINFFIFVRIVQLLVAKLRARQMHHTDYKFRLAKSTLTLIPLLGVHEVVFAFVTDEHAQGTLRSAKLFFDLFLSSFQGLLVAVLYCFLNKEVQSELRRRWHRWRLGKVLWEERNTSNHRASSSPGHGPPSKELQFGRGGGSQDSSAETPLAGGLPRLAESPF
binder,measurement,setting,value
H[Aib]QGTFTSDVSK[αMeF]LDTK([AEEA-AEEA-γGlu-C20 diacid])RAQDFVRWLLR[Aib]A-OH (N-terminus assumed; SMILES CC(C)C[C@H](NC(=O)[C@H](Cc1c[nH]c2ccccc12)NC(=O)[C@H](CCCNC(=N)N)NC(=O)[C@@H](NC(=O)[C@H](Cc1ccccc1)NC(=O)[C@H](CC(=O)O)NC(=O)[C@H](CCC(N)=O)NC(=O)[C@H](C)NC(=O)[C@H](CCCNC(=N)N)NC(=O)[C@H](CCCCNC(=O)COCCOCCNC(=O)COCCOCCNC(=O)CC[C@H](NC(=O)CCCCCCCCCCCCCCCCCCC(=O)O)C(=O)O)NC(=O)[C@@H](NC(=O)[C@H](CC(=O)O)NC(=O)[C@H](CC(C)C)NC(=O)[C@](C)(Cc1ccccc1)NC(=O)[C@H](CCCCN)NC(=O)[C@H](CO)NC(=O)[C@@H](NC(=O)[C@H](CC(=O)O)NC(=O)[C@H](CO)NC(=O)[C@@H](NC(=O)[C@H](Cc1ccccc1)NC(=O)[C@@H](NC(=O)CNC(=O)[C@H](CCC(N)=O)NC(=O)C(C)(C)NC(=O)[C@@H](N)Cc1c[nH]cn1)[C@@H](C)O)[C@@H](C)O)C(C)C)[C@@H](C)O)C(C)C)C(=O)N[C@@H](CC(C)C)C(=O)N[C@@H](CCCNC(=N)N)C(=O)NC(C)(C)C(=O)N[C@@H](C)C(=O)O) [Peptide 498],hGLP-1R EC50 (pM),[1],156 pM
same,hGluc-R EC50 (pM),[2],170 pM
H[Aib]QGTFTSDVSK[αMeF]LDTK([AEEA-AEEA-γGlu-C18 diacid])RAQDFVRWLLR[Aib]A-OH (N-terminus assumed; SMILES CC(C)C[C@H](NC(=O)[C@H](Cc1c[nH]c2ccccc12)NC(=O)[C@H](CCCNC(=N)N)NC(=O)[C@@H](NC(=O)[C@H](Cc1ccccc1)NC(=O)[C@H](CC(=O)O)NC(=O)[C@H](CCC(N)=O)NC(=O)[C@H](C)NC(=O)[C@H](CCCNC(=N)N)NC(=O)[C@H](CCCCNC(=O)COCCOCCNC(=O)COCCOCCNC(=O)CC[C@H](NC(=O)CCCCCCCCCCCCCCCCC(=O)O)C(=O)O)NC(=O)[C@@H](NC(=O)[C@H](CC(=O)O)NC(=O)[C@H](CC(C)C)NC(=O)[C@](C)(Cc1ccccc1)NC(=O)[C@H](CCCCN)NC(=O)[C@H](CO)NC(=O)[C@@H](NC(=O)[C@H](CC(=O)O)NC(=O)[C@H](CO)NC(=O)[C@@H](NC(=O)[C@H](Cc1ccccc1)NC(=O)[C@@H](NC(=O)CNC(=O)[C@H](CCC(N)=O)NC(=O)C(C)(C)NC(=O)[C@@H](N)Cc1c[nH]cn1)[C@@H](C)O)[C@@H](C)O)C(C)C)[C@@H](C)O)C(C)C)C(=O)N[C@@H](CC(C)C)C(=O)N[C@@H](CCCNC(=N)N)C(=O)NC(C)(C)C(=O)N[C@@H](C)C(=O)O) [Peptide 497],hGLP-1R EC50 (pM),[1],37.4 pM
same,hGluc-R EC50 (pM),[2],118 pM
H[Aib]QGTFTSDVSK[αMeF]LDTK([AEEA-AEEA-γGlu-C18 diacid])RAQDFVQWLLR[Aib]A-OH (N-terminus assumed; SMILES CC(C)C[C@H](NC(=O)[C@H](Cc1c[nH]c2ccccc12)NC(=O)[C@H](CCC(N)=O)NC(=O)[C@@H](NC(=O)[C@H](Cc1ccccc1)NC(=O)[C@H](CC(=O)O)NC(=O)[C@H](CCC(N)=O)NC(=O)[C@H](C)NC(=O)[C@H](CCCNC(=N)N)NC(=O)[C@H](CCCCNC(=O)COCCOCCNC(=O)COCCOCCNC(=O)CC[C@H](NC(=O)CCCCCCCCCCCCCCCCC(=O)O)C(=O)O)NC(=O)[C@@H](NC(=O)[C@H](CC(=O)O)NC(=O)[C@H](CC(C)C)NC(=O)[C@](C)(Cc1ccccc1)NC(=O)[C@H](CCCCN)NC(=O)[C@H](CO)NC(=O)[C@@H](NC(=O)[C@H](CC(=O)O)NC(=O)[C@H](CO)NC(=O)[C@@H](NC(=O)[C@H](Cc1ccccc1)NC(=O)[C@@H](NC(=O)CNC(=O)[C@H](CCC(N)=O)NC(=O)C(C)(C)NC(=O)[C@@H](N)Cc1c[nH]cn1)[C@@H](C)O)[C@@H](C)O)C(C)C)[C@@H](C)O)C(C)C)C(=O)N[C@@H](CC(C)C)C(=O)N[C@@H](CCCNC(=N)N)C(=O)NC(C)(C)C(=O)N[C@@H](C)C(=O)O) [Peptide 499],hGLP-1R EC50 (pM),[1],40.6 pM
same,hGluc-R EC50 (pM),[2],78.8 pM
H[Aib]QGTFTSDVSK[αMeF]LESK([AEEA-AEEA-γGlu-C20 diacid])RAQDFVRWLLE[Aib]K-OH (N-terminus assumed; SMILES CC(C)C[C@H](NC(=O)[C@H](Cc1c[nH]c2ccccc12)NC(=O)[C@H](CCCNC(=N)N)NC(=O)[C@@H](NC(=O)[C@H](Cc1ccccc1)NC(=O)[C@H](CC(=O)O)NC(=O)[C@H](CCC(N)=O)NC(=O)[C@H](C)NC(=O)[C@H](CCCNC(=N)N)NC(=O)[C@H](CCCCNC(=O)COCCOCCNC(=O)COCCOCCNC(=O)CC[C@H](NC(=O)CCCCCCCCCCCCCCCCCCC(=O)O)C(=O)O)NC(=O)[C@H](CO)NC(=O)[C@H](CCC(=O)O)NC(=O)[C@H](CC(C)C)NC(=O)[C@](C)(Cc1ccccc1)NC(=O)[C@H](CCCCN)NC(=O)[C@H](CO)NC(=O)[C@@H](NC(=O)[C@H](CC(=O)O)NC(=O)[C@H](CO)NC(=O)[C@@H](NC(=O)[C@H](Cc1ccccc1)NC(=O)[C@@H](NC(=O)CNC(=O)[C@H](CCC(N)=O)NC(=O)C(C)(C)NC(=O)[C@@H](N)Cc1c[nH]cn1)[C@@H](C)O)[C@@H](C)O)C(C)C)C(C)C)C(=O)N[C@@H](CC(C)C)C(=O)N[C@@H](CCC(=O)O)C(=O)NC(C)(C)C(=O)N[C@@H](CCCCN)C(=O)O) [Peptide 504],hGLP-1R EC50 (pM),[1],124 pM
same,hGluc-R EC50 (pM),[2],551 pM
H[Aib]QGTFTSDVSK[αMeF]LDTK([AEEA-AEEA-γGlu-C20 diacid])RAQDFVRWLLE[Aib]K-OH [Peptide 503],hGLP-1R EC50 (pM),[1],81.2 pM
same,hGluc-R EC50 (pM),[2],84.9 pM
H[Aib]QGTFTSDVSK[αMeF]LDTK([AEEA-AEEA-γGlu-C18 diacid])RARDFVQWLLR[Aib]A-OH (N-terminus assumed; SMILES CC(C)C[C@H](NC(=O)[C@H](Cc1c[nH]c2ccccc12)NC(=O)[C@H](CCC(N)=O)NC(=O)[C@@H](NC(=O)[C@H](Cc1ccccc1)NC(=O)[C@H](CC(=O)O)NC(=O)[C@H](CCCNC(=N)N)NC(=O)[C@H](C)NC(=O)[C@H](CCCNC(=N)N)NC(=O)[C@H](CCCCNC(=O)COCCOCCNC(=O)COCCOCCNC(=O)CC[C@H](NC(=O)CCCCCCCCCCCCCCCCC(=O)O)C(=O)O)NC(=O)[C@@H](NC(=O)[C@H](CC(=O)O)NC(=O)[C@H](CC(C)C)NC(=O)[C@](C)(Cc1ccccc1)NC(=O)[C@H](CCCCN)NC(=O)[C@H](CO)NC(=O)[C@@H](NC(=O)[C@H](CC(=O)O)NC(=O)[C@H](CO)NC(=O)[C@@H](NC(=O)[C@H](Cc1ccccc1)NC(=O)[C@@H](NC(=O)CNC(=O)[C@H](CCC(N)=O)NC(=O)C(C)(C)NC(=O)[C@@H](N)Cc1c[nH]cn1)[C@@H](C)O)[C@@H](C)O)C(C)C)[C@@H](C)O)C(C)C)C(=O)N[C@@H](CC(C)C)C(=O)N[C@@H](CCCNC(=N)N)C(=O)NC(C)(C)C(=O)N[C@@H](C)C(=O)O) [Peptide 501],hGLP-1R EC50 (pM),[1],26.5 pM
same,hGluc-R EC50 (pM),[2],75.6 pM
H[Aib]QGTFTSDVSK[αMeF]LDTK([AEEA-AEEA-γGlu-C20 diacid])RAQDFVQWLLR[Aib]A-OH (N-terminus assumed; SMILES CC(C)C[C@H](NC(=O)[C@H](Cc1c[nH]c2ccccc12)NC(=O)[C@H](CCC(N)=O)NC(=O)[C@@H](NC(=O)[C@H](Cc1ccccc1)NC(=O)[C@H](CC(=O)O)NC(=O)[C@H](CCC(N)=O)NC(=O)[C@H](C)NC(=O)[C@H](CCCNC(=N)N)NC(=O)[C@H](CCCCNC(=O)COCCOCCNC(=O)COCCOCCNC(=O)CC[C@H](NC(=O)CCCCCCCCCCCCCCCCCCC(=O)O)C(=O)O)NC(=O)[C@@H](NC(=O)[C@H](CC(=O)O)NC(=O)[C@H](CC(C)C)NC(=O)[C@](C)(Cc1ccccc1)NC(=O)[C@H](CCCCN)NC(=O)[C@H](CO)NC(=O)[C@@H](NC(=O)[C@H](CC(=O)O)NC(=O)[C@H](CO)NC(=O)[C@@H](NC(=O)[C@H](Cc1ccccc1)NC(=O)[C@@H](NC(=O)CNC(=O)[C@H](CCC(N)=O)NC(=O)C(C)(C)NC(=O)[C@@H](N)Cc1c[nH]cn1)[C@@H](C)O)[C@@H](C)O)C(C)C)[C@@H](C)O)C(C)C)C(=O)N[C@@H](CC(C)C)C(=O)N[C@@H](CCCNC(=N)N)C(=O)NC(C)(C)C(=O)N[C@@H](C)C(=O)O) [Peptide 500],hGLP-1R EC50 (pM),[1],102 pM
same,hGluc-R EC50 (pM),[2],101 pM
H[Aib]QGTFTSDVSK[αMeF]LDTK([AEEA-AEEA-γGlu-C20 diacid])RARDFVQWLLR[Aib]A-OH (N-terminus assumed; SMILES CC(C)C[C@H](NC(=O)[C@H](Cc1c[nH]c2ccccc12)NC(=O)[C@H](CCC(N)=O)NC(=O)[C@@H](NC(=O)[C@H](Cc1ccccc1)NC(=O)[C@H](CC(=O)O)NC(=O)[C@H](CCCNC(=N)N)NC(=O)[C@H](C)NC(=O)[C@H](CCCNC(=N)N)NC(=O)[C@H](CCCCNC(=O)COCCOCCNC(=O)COCCOCCNC(=O)CC[C@H](NC(=O)CCCCCCCCCCCCCCCCCCC(=O)O)C(=O)O)NC(=O)[C@@H](NC(=O)[C@H](CC(=O)O)NC(=O)[C@H](CC(C)C)NC(=O)[C@](C)(Cc1ccccc1)NC(=O)[C@H](CCCCN)NC(=O)[C@H](CO)NC(=O)[C@@H](NC(=O)[C@H](CC(=O)O)NC(=O)[C@H](CO)NC(=O)[C@@H](NC(=O)[C@H](Cc1ccccc1)NC(=O)[C@@H](NC(=O)CNC(=O)[C@H](CCC(N)=O)NC(=O)C(C)(C)NC(=O)[C@@H](N)Cc1c[nH]cn1)[C@@H](C)O)[C@@H](C)O)C(C)C)[C@@H](C)O)C(C)C)C(=O)N[C@@H](CC(C)C)C(=O)N[C@@H](CCCNC(=N)N)C(=O)NC(C)(C)C(=O)N[C@@H](C)C(=O)O) [Peptide 502],hGLP-1R EC50 (pM),[1],82.1 pM
same,hGluc-R EC50 (pM),[2],175 pM
